Experimental findings from patent US6395275 (Scripps Research, dated 2002) are described below.

Changes are numbered by the printed parent chain. Where two headings read alike, the source gives them in different places.

What is called Kd is a measure of binding affinity in units of concentration. In general, koff refers to a measure of how fast the partners let go of each other. One may read the kon as the rate constant with which the complex forms.

The target of assay [1] is gp120 glycoprotein of HIV-1 strain MN (HIV-1 strain MN, UniProt P05877 32-513, limits assumed). Briefly: cell-based or functional assay.
For assay [2], the target named is T1, recombinant gp120 of HIV-1 strain IIIb (HIV-1 strain IIIb, UniProt P04578 33-511).
T1 construct: domain: gp120; also called IIIb-derived gp120; gp 120 (IIIB strain)
Kind of assay: SPR BIAcore, gp120 on chip (summary table).

Assay [3] deals with T1, recombinant gp120 of HIV-1 strain IIIb. Kind of assay: SPR BIAcore, gp120 on chip.
The target is the same in assay [4]. Briefly: SPR BIAcore, gp120 on chip. This is another data set of the same source.
Description: (§1) As the mass of the gold chips increases due to the binding of the Fabs to the ligand, the refractive index of the chips increases indicating a coordinate increase in the increase of the mass. Measurements of the "on" rate are made in addition to the "off" rates, the latter of which occurs as the Fabs begin to dissociate from the ligand and the mass coordinately decreases, thereby allowing a measurement of the change of the refractive index. Briefly, the sensor chip was activated for immobilization with N-hydroxysuccinimide an N-ethyl-N'-(3-diethyl aminopropyl) carbodiimide. The proteins, MN-derived or IIIb-derived gp120, were coupled to the surface by injection of 50 ul of a 50 ug/ml sample. Excess activated esters were quenched with 15 ul ethanolamine, 1 M pH 8.5. Typically, 4000 resonance units were immobilized. Binding of Fab fragments to immobilized gp120 was studied by injection of Fab in a range of concentrations (0.5 to 10 ug/ml) at a flow rate of 5 ul/minute. The association was monitored as the increase in resonance units per unit time. Dissociation measurements were acquired following the end of the association phase but with a flow rate of 50 ul/minute. The binding surface was regenerated with HCl, 1M NaCl, pH 3 and remained active for 20–40 measurements. […] Equilibrium association and dissociation constants were deduced from the rate constants.
The soluble composite Fabs were then analyzed for binding affinity to gp120 strain IIIB.
Assay [5] shares this target. Briefly: SPR BIAcore, gp120 on chip. This is another data set of the same source. (In general: In SPR one partner is held on a chip, and binding of the other changes the refractive index at the surface.)
Description: as §1
The soluble M556 series Fabs were then analyzed for binding affinity to gp120 (strain IIIB).
The target is the same in assay [6]. Briefly: SPR BIAcore, gp120 on chip. The source holds these as a separate data set.
Description: In the assay, the gp120 glycoprotein, isolated from both MN (AgMed, Cambridge, Mass.) and IIIb (American Bio-Technologies) strains of HIV-1 were coated onto gold chips. […] As the mass of the gold chips increases due to the binding of the Fabs to the ligand, the refractive index of the chips increases indicating a coordinate increase in the increase of the mass. Measurements of the "on" rate are made in addition to the "off" rates, the latter of which occurs as the Fabs begin to dissociate from the ligand and the mass coordinately decreases, thereby allowing a measurement of the change of the refractive index. Briefly, the sensor chip was activated for immobilization with N-hydroxysuccinimide an N-ethyl-N'-(3-diethyl aminopropyl) carbodiimide. The proteins, MN-derived or IIIb-derived gp120, were coupled to the surface by injection of 50 ul of a 50 ug/ml sample. Excess activated esters were quenched with 15 ul ethanolamine, 1 M pH 8.5. Typically, 4000 resonance units were immobilized. Binding of Fab fragments to immobilized gp120 was studied by injection of Fab in a range of concentrations (0.5 to 10 ug/ml) at a flow rate of 5 ul/minute. The association was monitored as the increase in resonance units per unit time. Dissociation measurements were acquired following the end of the association phase but with a flow rate of 50 ul/minute. The binding surface was regenerated with HCl, 1M NaCl, pH 3 and remained active for 20–40 measurements. […] Equilibrium association and dissociation constants were deduced from the rate constants.
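Throughout, for Ka: fab fragments flowed at 0.5 to 10 ug/ml over immobilized gp120, resonance units tracked during association and dissociation, equilibrium constants derived from the rate constants.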

B1: Fab 3b9 (Fab, V domains shown)
VH: LEQSGAEVKKPGASVKVSCQASGYRFSNFTVHWVRQAPGQRFEWMGWINPYNGNKEFSAKFQDRVTFTADTSANTAYMELRSLRSADTAVYYCARVGPWRWDDSPQDNYYMDVWGKGTIVIVSS
VL: ELTQSPGTLSLSPGERATFSCRSSHSIRSRRVAWYQHKPGQAPRLVIHGVSNRASGISDRFSGSGSGTDFTLTITRVEPEDFALYYCQVYGASSYTFGQGTKLERKR
As for B1, in assay [1], the “IC50 (M^-1), syncytium neutralization assay, HIV-1 MN on CEM-SS cells” value (shortened to “IC50”) was 6.4e+09 M⁻¹ and the “Neutralization Titer (ng/ml), syncytium assay, HIV-1 MN” value (“Neutralization Titer (ng/ml)” below) turned out to be 7.8 ng/mL.

B2: composite Fab H101/L42-16 (Fab, V domains shown)
VH: B1 VH with N28H, M45H, P98E, R100G, D102H, D103Q, S104R, P105R, Q106Y, I119T
VL: B1 VL with S26Q, I27L, R28D, S29G, R30S, V89Q, A92W, S93P, S94F
B2: the Kd in assay [2] worked out at 170 pM. Besides, in assay [3], the koff came to 1.19e-05 s⁻¹ and the on-rate constant (kon) worked out at 69100 M⁻¹ s⁻¹. Moreover, in assay [4], the “Fold Increase of Mutant Kd Compared to MT4 Kd” value (from here on “Fold Increase”) was 36.6 fold, the Ka worked out at 5.81e+09 M⁻¹ and the Kd stood at 172 pM.

B3: composite Fab 4H/L42-1 (Fab, V domains shown)
VH: B1 VH with T30V, V31I, W99Y, R100S, I119T
VL: B1 VL with S26Q, I27L, R28D, S29G, R30S, V89Q, A92W, S93P, S94F
Consider B3, for which, in assay [3], the koff was determined as 0.000615 s⁻¹ and the kon was 296000 M⁻¹ s⁻¹. In addition, in assay [4], the “Fold Increase” value amounted to 3.02 fold, the Ka stood at 4.81e+08 M⁻¹ and the dissociation constant Kd came out at 2080 pM.

B4: Fab 3b4 (Fab, V domains shown)
VH: LEQSGAEVKKPGASVKVSCQASGYRFSNYTLIWVRQAPGQRFEWMGWINPYNGNKEFSAKFQDRVTFTADTSANTAYMELRSLRSADTAVYYCARVGPWNWDSPQDNYYMDVWGKGTTVIVSS
VL: B1 VL
Consider B4, for which, in assay [1], the “IC50” value was found to be 2.57e+09 M⁻¹ and the “Neutralization Titer (ng/ml)” value was 19.4 ng/mL.

B5: composite Fab H103/L42-4 (Fab, V domains shown)
VH: LEQSGAEVKKPGASVKVSCQASGYRFSHFTLHWVRQAPGQRFEWHGWINPYNGNKEFSAKFQDRVTFTADTSANTAYMELRSLRSADTAVYYCARVGEWGWHQRRYDNYYMDVWGKGTTVIVSS
VL: B1 VL with S26Q, I27L, R28D, S29G, R30S, V89Q, A92W, S93P, S94F
As for B5, the dissociation constant (Kd) in assay [2] is 113 pM. In addition, in assay [3], the off-rate (koff) was found to be 9.41e-06 s⁻¹ and the kon came to 81800 M⁻¹ s⁻¹. Besides, in assay [4], the “Fold Increase” value came to 55.8 fold, the Ka stood at 8.88e+09 M⁻¹ and the Kd amounted to 113 pM.

B6: composite Fab H101/L42-1 (Fab, V domains shown)
VH: B5 VH with L31V
VL: B1 VL with S26Q, I27L, R28D, S29G, R30S, V89Q, A92W, S93P, S94F
With B6, the Kd in assay [2] amounted to 130 pM. In assay [3], the koff came out at 1.74e-05 s⁻¹ and the kon stood at 134000 M⁻¹ s⁻¹. Further, in assay [4], the “Fold Increase” value came out at 48.5 fold, the Ka was 7.7e+09 M⁻¹ and the Kd came to 130 pM.

B7: composite Fab H33/LH-11 (Fab, V domains shown)
VH: B5 VH with H102E, Q103M, R104F
VL: B1 VL with S26Q, I27L, R28D, S29G, R30S, V89T, A92R, S93G, S94H
For B7, the equilibrium dissociation constant (Kd) in assay [2] was found to be 73.8 pM. Also, in assay [3], the koff is 5.45e-06 s⁻¹ and the on-rate (kon) was 73200 M⁻¹ s⁻¹. In assay [4], the “Fold Increase” value stood at 85.4 fold, the Ka was found to be 1.36e+10 M⁻¹ and the equilibrium dissociation constant (Kd) came out at 73.8 pM.

B8: composite Fab H33/L42-17 (Fab, V domains shown)
VH: B5 VH with H102E, Q103M, R104F
VL: B1 VL with S26Q, I27L, R28D, S29G, R30S, V89Q, A92W, S93P, S94F
Take B8: the Kd in assay [2] was determined as 183 pM. In addition, in assay [3], the dissociation rate constant (koff) turned out to be 1.78e-05 s⁻¹ and the kon was found to be 98400 M⁻¹ s⁻¹. Further, in assay [4], the “Fold Increase” value was 34.4 fold, the Ka was found to be 5.46e+09 M⁻¹ and the dissociation constant (Kd) worked out at 183 pM.

B9: Fab M556-2 (Fab, V domains shown)
VH: B5 VH with H28N, L31V, H45M, H102E, R104F, Y106F
VL: B1 VL
As for B9, in assay [5], the “Fold Increase” value came to 14.3 fold and the dissociation constant Kd was 439 pM. In assay [2], the dissociation constant Kd was 439 pM.

B10: Fab QA1 (Fab, V domains shown)
VH: B1 VH with P98E, R100G, I119T
VL: B1 VL with S26Q, I27L, R28D, S29G, R30S, A92W, S94Q
With B10, the “Fold Increase” value in assay [6] was found to be 12.2 fold. Moreover, the Kd in assay [6] and in assay [2] was 510 pM throughout.

B11: Fab QA10 (Fab, V domains shown)
VH: B1 VH with P98E, R100G, I119T
VL: B1 VL with S26Q, I27L, R28D, S29G, R30S, V89T, A92R, S93G
Regarding B11, in assay [6], the “Fold Increase” value stood at 85.9 fold and the dissociation constant (Kd) is 74 pM. In assay [2], the dissociation constant Kd was found to be 74 pM.

B12: Fab M556-15 (Fab, V domains shown)
VH: B5 VH with H28N, L31V, H45M, H102T, Y106F
VL: B1 VL
Turning to B12, in assay [5], the “Fold Increase” value was determined as 36.2 fold. Also, the dissociation constant Kd in assay [5] and in assay [2] was 174 pM each time.

B13: Fab QA11 (Fab, V domains shown)
VH: B1 VH with P98E, R100G, I119T
VL: B1 VL with S26Q, I27L, R28D, S29G, R30S, V89T, A92R, S93G, S94H
notes: also called LH (its light chain)
Regarding B13, the “Fold Increase” value in assay [6] was found to be 94.4 fold. Moreover, the Kd in assay [6] and in assay [2] was 67 pM throughout.

B14: Fab MT4 (Fab, V domains shown)
VH: B1 VH with T30V, V31I, W99Y, R100S, I119T
VL: B1 VL
notes: also called Fab 4; 4H (heavy chain)
As for B14, in assay [1], the “IC50” value turned out to be 1.69e+08 M⁻¹ and the “Neutralization Titer (ng/ml)” value came to 296 ng/mL.

B15: Fab QA4 (Fab, V domains shown)
VH: B1 VH with P98E, R100G, I119T
VL: B1 VL with S26Q, I27L, R28D, S29G, R30S, V89S, A92G, S93R, S94D
Take B15: in assay [6], the “Fold Increase” value was determined as 12.6 fold and the Kd was 500 pM. For the same molecule, the equilibrium dissociation constant (Kd) in assay [2] was 500 pM.

B16: composite Fab H101/4L-1 (Fab, V domains shown)
VH: B5 VH with L31V
VL: B1 VL
Regarding B16, the dissociation constant (Kd) in assay [2] came to 380 pM. Further, in assay [3], the off-rate constant (koff) is 3.39e-05 s⁻¹ and the on-rate (kon) worked out at 893000 M⁻¹ s⁻¹. In assay [4], the “Fold Increase” value was 16.6 fold, the Ka is 2.63e+09 M⁻¹ and the Kd is 380 pM.

B17: Fab QA8 (Fab, V domains shown)
VH: B1 VH with P98E, R100G, I119T
VL: B1 VL with S26Q, I27L, R28D, S29G, R30S, V89Q, A92D, S94L
In the case of B17, in assay [6], the “Fold Increase” value worked out at 14.3 fold and the Kd stood at 440 pM. Further, in assay [2], the Kd was 440 pM.

B18: Fab QA12 (Fab, V domains shown)
VH: B1 VH with P98E, R100G, I119T
VL: B1 VL with S26Q, I27L, R28D, S29G, R30S, V89T, A92R, S93G, S94I
Turning to B18, in assay [6], the “Fold Increase” value worked out at 48.6 fold and the Kd amounted to 130 pM. The Kd in assay [2] worked out at 130 pM.

B19: Fab QA9 (Fab, V domains shown)
VH: B1 VH with P98E, R100G, I119T
VL: B1 VL with S26Q, I27L, R28D, S29G, R30S, V89M, A92G, S93F, S94T
As to B19, the “Fold Increase” value in assay [6] is 10.3 fold. Besides, the Kd in assay [6] and in assay [2] was 610 pM throughout.

B20: Fab M556-7 (Fab, V domains shown)
VH: B5 VH with H28N, L31V, H45M, H102E, Q103M, Y106F
VL: B1 VL
As for B20, in assay [5], the “Fold Increase” value came out at 48.1 fold and the Kd stood at 131 pM. The Kd in assay [2] turned out to be 130 pM.

B21: Fab M556-16 (Fab, V domains shown)
VH: B5 VH with H28N, L31V, H45M, H102D, R104V
VL: B1 VL
For B21, in assay [5], the “Fold Increase” value was found to be 45.3 fold and the Kd was found to be 139 pM. Further, the Kd in assay [2] turned out to be 139 pM.

B22: Fab M556-10 (Fab, V domains shown)
VH: B5 VH with H28N, L31V, H45M
VL: B1 VL
On to B22, for which, in assay [5], the “Fold Increase” value worked out at 69.5 fold and the dissociation constant Kd was 90.6 pM. Also, the Kd in assay [2] is 906 pM.

B23: Fab M556-3 (Fab, V domains shown)
VH: B5 VH with H28N, L31V, H45M, H102E, Q103M, R104F
VL: B1 VL
Consider B23, for which, in assay [5], the “Fold Increase” value worked out at 63 fold and the Kd amounted to 101 pM. The Kd in assay [2] is 100 pM.

B24: Fab QA5 (Fab, V domains shown)
VH: B1 VH with P98E, R100G, I119T
VL: B1 VL with S26Q, I27L, R28D, S29G, R30S, V89T, A92W, S94G
On to B24, for which the “Fold Increase” value in assay [6] stood at 13.7 fold. Also, the dissociation constant Kd in assay [6] and in assay [2] was 460 pM throughout.

B25: Fab QA2 (Fab, V domains shown)
VH: B1 VH with P98E, R100G, I119T
VL: B1 VL with S26Q, I27L, R28D, S29G, R30S, V89L, A92R, S93G, S94N
With B25, in assay [6], the “Fold Increase” value stood at 14.9 fold and the Kd was determined as 420 pM. The Kd in assay [2] came out at 420 pM.

B26: composite Fab H31/4L-14 (Fab, V domains shown)
VH: B5 VH with L31V, H102E, Q103M, R104F
VL: B1 VL
Turning to B26, the dissociation constant (Kd) in assay [2] was found to be 22 pM. Further, in assay [3], the off-rate (koff) was found to be 3.39e-06 s⁻¹ and the kon was 153000 M⁻¹ s⁻¹. In assay [4], the “Fold Increase” value came to 284 fold, the Ka was 4.51e+10 M⁻¹ and the Kd is 22.2 pM.
